# Measurements: patent US20220347265
# Target: C3b (Complement Technology, Cat #A114), labeled with ANS (UniProt P01024)
# Chain of UniProt P01024 (P01024 whole entry, looked up): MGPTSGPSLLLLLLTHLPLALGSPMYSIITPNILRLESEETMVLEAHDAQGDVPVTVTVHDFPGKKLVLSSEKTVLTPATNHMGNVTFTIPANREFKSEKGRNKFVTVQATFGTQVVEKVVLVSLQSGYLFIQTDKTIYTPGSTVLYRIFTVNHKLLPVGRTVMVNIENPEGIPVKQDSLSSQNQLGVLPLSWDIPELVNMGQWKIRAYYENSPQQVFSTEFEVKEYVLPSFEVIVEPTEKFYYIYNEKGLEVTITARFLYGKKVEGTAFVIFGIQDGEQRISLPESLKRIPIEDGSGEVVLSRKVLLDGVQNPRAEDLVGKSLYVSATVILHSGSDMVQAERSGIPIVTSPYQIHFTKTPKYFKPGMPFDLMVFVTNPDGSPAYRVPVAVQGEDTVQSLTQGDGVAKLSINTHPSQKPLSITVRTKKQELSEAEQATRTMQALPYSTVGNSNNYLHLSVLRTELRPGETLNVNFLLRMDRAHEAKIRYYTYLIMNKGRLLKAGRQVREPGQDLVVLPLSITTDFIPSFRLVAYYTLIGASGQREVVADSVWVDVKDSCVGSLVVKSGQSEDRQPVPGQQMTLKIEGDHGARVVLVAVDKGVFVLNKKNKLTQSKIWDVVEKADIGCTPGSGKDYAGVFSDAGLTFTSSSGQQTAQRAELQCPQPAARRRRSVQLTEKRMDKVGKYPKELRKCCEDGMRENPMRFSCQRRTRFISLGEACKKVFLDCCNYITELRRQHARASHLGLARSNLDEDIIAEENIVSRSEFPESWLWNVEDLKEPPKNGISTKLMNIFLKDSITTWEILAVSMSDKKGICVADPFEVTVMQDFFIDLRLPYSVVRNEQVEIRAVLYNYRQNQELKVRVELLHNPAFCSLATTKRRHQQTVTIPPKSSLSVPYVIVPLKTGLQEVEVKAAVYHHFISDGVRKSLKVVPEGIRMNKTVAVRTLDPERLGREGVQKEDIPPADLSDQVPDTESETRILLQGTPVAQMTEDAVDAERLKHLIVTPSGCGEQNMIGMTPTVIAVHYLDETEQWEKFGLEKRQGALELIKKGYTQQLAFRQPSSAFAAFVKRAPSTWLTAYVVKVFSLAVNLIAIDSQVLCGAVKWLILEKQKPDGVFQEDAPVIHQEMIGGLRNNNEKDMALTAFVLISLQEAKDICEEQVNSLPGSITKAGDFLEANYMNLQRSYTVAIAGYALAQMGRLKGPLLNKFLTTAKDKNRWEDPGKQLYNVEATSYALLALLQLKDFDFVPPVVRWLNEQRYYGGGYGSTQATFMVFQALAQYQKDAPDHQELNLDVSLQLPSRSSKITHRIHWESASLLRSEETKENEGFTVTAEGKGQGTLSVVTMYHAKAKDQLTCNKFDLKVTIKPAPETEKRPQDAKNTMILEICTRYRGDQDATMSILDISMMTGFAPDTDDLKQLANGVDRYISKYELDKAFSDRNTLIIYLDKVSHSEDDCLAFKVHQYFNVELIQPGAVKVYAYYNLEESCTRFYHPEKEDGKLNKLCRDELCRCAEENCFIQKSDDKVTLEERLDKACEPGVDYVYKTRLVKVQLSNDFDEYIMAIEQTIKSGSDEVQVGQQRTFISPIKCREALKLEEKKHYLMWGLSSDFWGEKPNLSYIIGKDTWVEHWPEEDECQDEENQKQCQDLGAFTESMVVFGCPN
row,Substance,"fluorescence cofactor assay: cleavage of ANS-labeled C3b to iC3b (change in RFUs over time), with cofactor CFH, MCP or CR1, against wild type CFI"
1,A240G CFI protein,"certain CFI mutations (G119R, A240G, and P553S) were associated with greatly reduced CFI protein function"
2,A300T CFI protein,the A300T mutation appeared to have relatively little impact on CFI function
3,G119R CFI protein,"certain CFI mutations (G119R, A240G, and P553S) were associated with greatly reduced CFI protein function"
4,P553S CFI protein,"certain CFI mutations (G119R, A240G, and P553S) were associated with greatly reduced CFI protein function"
